In patent US10731195B2, “Methods for the enzymatic modification of steviol glycosides, modified steviol glycosides obtainable thereby, and the use thereof as sweeteners” (Rijksuniversiteit Groningen, priority 2015, dated 2020):
Numbering of substitutions follows the chain as printed. Names and notes keep the numbering of the source. Where two headings read alike, the source gives them in different places. One block for each molecule: values may come before it.

What was measured:
[1] = cited from earlier work
[2] = Isolation and structural analysis (NMR, methylation analysis) of α-glucosylated Rebaudioside A products; format: biochemical; conditions: 10 U/mL enzyme, 50 mM Rebaudioside A, 2 x 1000 mM sucrose, 24 hours
Protocol: For quantitative synthesis of α-glucosylated Rebaudioside A products using GTF180-ΔN and its derived mutants, incubations were performed in 5 mL 25 mM sodium acetate (pH 4.7), 1 mM CaCl2, 50 mM steviol glycoside with two batches of 1,000 mM equivalent of sucrose donor (t=0 and 3 h) to a total of 2,000 mM sucrose, using 10 U/mL enzyme at 37° C. for 24 hours. Products were purified from the incubation mixture by solid phase extraction using Strata-X 33u Polymeric Reversed Phase columns (Phenomenex). Products were separated on a Luna 10 μm NH2 semi-preparative chromatography column (250 mm×10 mm, Phenomenex) and were manually collected at a flow-rate of 4.6 mL/min, starting with a 2 min isocratic step of 80% solvent A followed by a linear gradient of 80 to 50% solvent A over 38 min (solvent A=acetonitrile; solvent B=0.025% acetic acid). The solvent of the collected fractions was evaporated under a stream of nitrogen gas and the dried materials were dissolved in deionized water.
Resolution-enhanced 1D/2D 500-MHz ^1H NMR spectra were recorded in D2O on a Bruker DRX-500 spectrometer (Bijvoet Center, Department of NMR Spectroscopy, Utrecht University) at a probe temperature of 334K. Data acquisition and processing were done with Bruker Topspin 2.1. Prior to analysis, samples were exchanged twice in D2O (99.9 atom % D, Cambridge Isotope Laboratories, Inc., Andover, Mass.) with intermediate lyophilization, and then dissolved in 0.6 mL D2O. […] The 2D TOCSY spectra were recorded using an MLEV-17 (composite pulse devised by Levitt et al (1982)) mixing sequence with spin-lock times of 40-200 ms. The 2D ROESY spectra were recorded using standard Bruker XWINNMR software with mixing time of 200 ms. […] Natural abundance 2D ^13C-^1H HSQC experiments (^1H frequency 500.0821 MHz, ^13C frequency 125.7552 MHz) were recorded without decoupling during acquisition of the ^1H FID. […]

[3] = Time course of Rebaudioside A utilization and RebAG1 formation (NP-HPLC); format: biochemical; conditions: 1000 mM sucrose, 10 U/mL enzyme
Protocol: (§1) Incubation reactions were performed in 25 mM sodium acetate (pH 4.7), 1 mM CaCl2, 50 to 1,000 mM sucrose, 50-100 mM steviol glycoside, and 2-30 U/mL purified GTF180-ΔN enzyme or GTF180-ΔN mutant enzyme at 37° C. for 15 min to 24 hours. Reactions were stopped by heat inactivation (100° C. for 15 min). From the inactivated samples 250 uL was mixed with 1000 ul of 10 mM catechol (internal standard) and subsequently purified by solid phase extraction using Strata-X 33u Polymeric Reversed Phase columns (Phenomenex). For HPLC analysis 20 μL of the purified sample was injected on a Luna 10 μm NH2 chromatography column (250 mm×4.6 mm; Phenomenex). Reaction components were separated at a flow-rate of 1 mL/min under gradient elution conditions, starting with a 2 min isocratic step of 70% solvent A followed by a linear gradient from 70 to 55% solvent A over 9 min (solvent A=acetonitrile; solvent B=0.025% acetic acid). Rebaudioside A and the mono-α-glucosylated Rebaudioside A product concentrations were determined with NP-HPLC, using their corresponding calibration curves ranging from 1.56 to 50 mM. All data were normalized with catechol as internal standard. The standard deviation of the response was less than 5%. […]

[4] = Polymerization (oligosaccharide and glucan formation from sucrose) activity; format: biochemical; conditions: data not shown
Protocol: Over a hundred glucan and fructansucrase wild type and mutant enzymes, mostly from Lactobacillus reuteri, were screened for Rebaudioside A α-glucosylation. For this, enzymes were incubated in 50 mM Rebaudioside A (FIG. 1) and 1000 mM sucrose for 3 hours. […] This is a clear advantage during downstream processing, the purification of the α-glucosylated Rebaudioside A products from mono- and disaccharides, oligosaccharides and glucans. By eliminating α-glucan synthesis, the most important side reaction, higher glycosylation yields were obtained for Rebaudioside A. At lower sucrose concentration (200 mM), these mutants had similar or even higher transglucosylating activity with Rebaudioside A than GTF180-ΔN and mutants S1137Y and Q1140E (data not shown).

[5] = Screening glucan and fructansucrase enzymes for α-glucosylation of Rebaudioside A; format: biochemical; conditions: compared to GTF180-ΔN where comparative
Protocol: as §1

[6] = in water and in carbonated beverage base

Molecule: C=C1C[C@@]23CC[C@H]4[C@@](C)(CCC[C@@]4(C)C(=O)O[C@@H]4O[C@H](CO)[C@@H](O)[C@H](O)[C@H]4O[C@@H]4O[C@H](CO)[C@@H](O)[C@H](O)[C@H]4O)[C@@H]2CC[C@]1(O[C@@H]1O[C@H](CO)[C@@H](O)[C@H](O[C@@H]2O[C@H](CO)[C@@H](O)[C@H](O)[C@H]2O)[C@H]1O[C@@H]1O[C@H](CO)[C@@H](O)[C@H](O)[C@H]1O)C3 [Rebaudioside D]
bitterness compared to Rebaudioside A [1, 6]: decreased bitterness | sweetness compared to Rebaudioside A [1, 6]: increased sweetness

Molecule: C=C1C[C@@]23CC[C@H]4[C@@](C)(CCC[C@@]4(C)C(=O)O[C@@H]4O[C@H](CO)[C@@H](O)[C@H](O[C@@H]5O[C@H](CO)[C@@H](O)[C@H](O)[C@H]5O)[C@H]4O[C@@H]4O[C@H](CO)[C@@H](O)[C@H](O)[C@H]4O)[C@@H]2CC[C@]1(O[C@@H]1O[C@H](CO)[C@@H](O)[C@H](O[C@@H]2O[C@H](CO)[C@@H](O)[C@H](O)[C@H]2O)[C@H]1O[C@@H]1O[C@H](CO)[C@@H](O)[C@H](O)[C@H]1O)C3 [Rebaudioside M]
bitterness compared to Rebaudioside A ([1]; in acidified water): reduced bitterness | sweetness compared to Rebaudioside A ([1]; in acidified water): higher sweetness | bitterness compared to Rebaudioside A ([1]; in water solution): reduced bitterness

B1: GTF180-ΔN: N-terminal truncated GTF180 (AY697430) of Lactobacillus reuteri 180; Met-Gly-742-1772-His6 (protein, listed as Lactobacillus reuteri)
chain: MGINGQQYYIDPTTGQPRKNFLLQNGNDWIYFDKDTGAGTNALKLQFDKGTISADEQYRRGNEAYSYDDKSIENVNGYLTADTWYRPKQILKDGTTWTDSKETDMRPILMVWWPNTVTQAYYLNYMKQYGNLLPASLPSFSTDADSAELNHYSELVQQNIEKRISETGSTDWLRTLMHEFVTKNSMWNKDSENVDYGGLQLQGGFLKYVNSDLTKYANSDWRLMNRTATNIDGKNYGGAEFLLANDIDNSNPVVQAEELNWLYYLMNFGTITGNNPEANFDGIRVDAVDNVDVDLLSIARDYFNAAYNMEQSDASANKHINILEDWGWDDPAYVNKIGNPQLTMDDRLRNAIMDTLSGAPDKNQALNKLITQSLVNRANDNTENAVIPSYNFVRAHDSNAQDQIRQAIQAATGKPYGEFNLDDEKKGMEAYINDQNSTNKKWNLYNMPSAYTILLTNKDSVPRVYYGDLYQDGGQYMEHKTRYFDTITNLLKTRVKYVAGGQTMSVDKNGILTNVRFGKGAMNATDTGTDETRTEGIGVVISNNTNLKLNDGESVVLHMGAAHKNQKYRAVILTTEDGVKNYTNDTDAPVAYTDANGDLHFTNTNLDGQQYTAVRGYANPDVTGYLAVWVPAGAADDQDARTAPSDEAHTTKTAYRSNAALDSNVIYEGFSNFIYWPTTESERTNVRIAQNADLFKSWGITTFELAPQYNSSKDGTFLDSIIDNGYAFTDRYDLGMSTPNKYGSDEDLRNALQALHKAGLQAIADWVPDQIYNLPGKEAVTVTRSDDHGTTWEVSPIKNVVYITNTIGGGEYQKKYGGEFLDTLQKEYPQLFSQVYPVTQTTIDPSVKIKEWSAKYFNGTNILHRGAGYVLRSNDGKYYNLGTSTQQFLPSQLSVQDNEGYGFVKEGNNYHYYDENKQMVKDAFIQDSVGNWYYLDKNGNMVANQSPVEISSNGASGTYLFLNNGTSFRSGLVKTDAGTYYYDGDGRMVRNQTVSDGAMTYVLDENGKLVSESFDSSATEAHPLKPGDLNGQK
share of di-glucosylated Rebaudioside A product elongated with an (α1→3)-linked glucose [2]: ~75% | share of di-glucosylated Rebaudioside A product elongated with another (α1→6)-linked glucose [2]: ~25% | share of mono-α-glucosylated product with (α1→6)-linked glucose at the C-19 β-linked glucose [2]: 100% | Rebaudioside A conversion ([3]; 50 mM Rebaudioside A): 55% | RebAG1 formed from 50 mM Rebaudioside A [3]: ~13 mM

α-glucosylation / transglucosylating activity towards Rebaudioside A (in words) [5]: able to α-glucosylate Rebaudioside A
B2: GTF180-ΔN-XM2: single amino acid mutant (W1065L) of GTF180-ΔN (protein, listed as Lactobacillus reuteri)
chain: B1 chain with W326L
polymerization (oligosaccharide and glucan formation) activity [4]: almost no polymerization
